According to patent US20150074844A1 (PURDUE RESEARCH FOUNDATION, published 2015):

T1: PYL6-nLUC (Arabidopsis thaliana, UniProt Q8S8E3 1-215)
T1 construct: LUC complementation assay in protoplasts; also called PYLs-nLUC; not shown: N-terminal domain of firefly luciferase
T1 sequence: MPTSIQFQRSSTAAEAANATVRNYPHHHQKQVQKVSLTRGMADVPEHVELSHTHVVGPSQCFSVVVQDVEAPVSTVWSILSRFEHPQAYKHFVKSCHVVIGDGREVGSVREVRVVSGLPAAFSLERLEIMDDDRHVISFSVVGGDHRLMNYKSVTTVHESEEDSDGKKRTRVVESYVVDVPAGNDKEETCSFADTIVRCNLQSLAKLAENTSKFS

T2: PYL8-nLUC (Arabidopsis thaliana, UniProt Q9FGM1 1-188)
T2 construct: LUC complementation assay in protoplasts; also called PYLs-nLUC; not shown: N-terminal domain of firefly luciferase
T2 sequence: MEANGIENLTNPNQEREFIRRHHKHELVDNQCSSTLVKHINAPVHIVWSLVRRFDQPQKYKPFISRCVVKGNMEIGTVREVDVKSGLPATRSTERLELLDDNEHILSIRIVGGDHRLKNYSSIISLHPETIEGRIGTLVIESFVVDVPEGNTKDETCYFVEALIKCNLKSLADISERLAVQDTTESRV

T3: PYR1-nLUC (Arabidopsis thaliana, UniProt O49686 1-191)
T3 construct: LUC complementation assay in protoplasts; also called PYLs-nLUC; not shown: N-terminal domain of firefly luciferase
T3 sequence: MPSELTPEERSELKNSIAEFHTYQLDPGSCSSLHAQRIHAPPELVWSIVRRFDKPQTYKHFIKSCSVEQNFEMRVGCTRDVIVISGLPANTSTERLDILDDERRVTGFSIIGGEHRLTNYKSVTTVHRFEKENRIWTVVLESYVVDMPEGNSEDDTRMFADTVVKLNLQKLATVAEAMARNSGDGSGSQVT

T4: PYL3-nLUC (Arabidopsis thaliana, UniProt Q9SSM7 1-209)
T4 construct: LUC complementation assay in protoplasts; also called PYLs-nLUC; not shown: N-terminal domain of firefly luciferase
T4 sequence: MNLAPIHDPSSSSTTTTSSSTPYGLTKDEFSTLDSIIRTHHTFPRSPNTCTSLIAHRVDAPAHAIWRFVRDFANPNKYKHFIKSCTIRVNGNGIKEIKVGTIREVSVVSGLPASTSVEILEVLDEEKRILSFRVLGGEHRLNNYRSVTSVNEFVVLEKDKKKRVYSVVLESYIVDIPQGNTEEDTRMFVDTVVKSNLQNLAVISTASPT

T5: PYL4-nLUC (Arabidopsis thaliana, UniProt O80920 1-207)
T5 construct: LUC complementation assay in protoplasts; also called PYLs-nLUC; not shown: N-terminal domain of firefly luciferase
T5 sequence: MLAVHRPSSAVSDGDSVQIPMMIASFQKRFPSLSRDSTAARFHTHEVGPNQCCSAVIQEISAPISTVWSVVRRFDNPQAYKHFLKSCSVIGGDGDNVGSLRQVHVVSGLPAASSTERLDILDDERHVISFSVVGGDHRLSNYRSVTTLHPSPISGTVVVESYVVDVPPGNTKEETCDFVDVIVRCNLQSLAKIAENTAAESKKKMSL

T6: PYL5-nLUC (Arabidopsis thaliana, UniProt Q9FLB1 1-203)
T6 construct: LUC complementation assay in protoplasts; also called PYLs-nLUC; not shown: N-terminal domain of firefly luciferase
T6 sequence: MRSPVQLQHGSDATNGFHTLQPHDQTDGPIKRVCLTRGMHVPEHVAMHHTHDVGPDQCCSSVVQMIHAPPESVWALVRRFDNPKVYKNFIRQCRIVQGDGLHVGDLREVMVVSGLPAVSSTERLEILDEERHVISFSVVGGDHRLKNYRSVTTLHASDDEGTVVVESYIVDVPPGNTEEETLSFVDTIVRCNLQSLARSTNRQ

T7: PYL7-nLUC (Arabidopsis thaliana, UniProt Q1ECF1 1-211)
T7 construct: LUC complementation assay in protoplasts; also called PYLs-nLUC; not shown: N-terminal domain of firefly luciferase
T7 sequence: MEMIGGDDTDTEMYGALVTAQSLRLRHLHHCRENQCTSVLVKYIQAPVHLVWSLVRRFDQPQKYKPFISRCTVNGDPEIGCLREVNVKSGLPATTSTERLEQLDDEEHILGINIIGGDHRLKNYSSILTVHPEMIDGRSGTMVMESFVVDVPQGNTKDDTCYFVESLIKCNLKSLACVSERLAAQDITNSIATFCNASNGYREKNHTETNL

T8: PYL10-nLUC (Arabidopsis thaliana, UniProt Q8H1R0 1-183)
T8 construct: LUC complementation assay in protoplasts; also called PYLs-nLUC; not shown: N-terminal domain of firefly luciferase
T8 sequence: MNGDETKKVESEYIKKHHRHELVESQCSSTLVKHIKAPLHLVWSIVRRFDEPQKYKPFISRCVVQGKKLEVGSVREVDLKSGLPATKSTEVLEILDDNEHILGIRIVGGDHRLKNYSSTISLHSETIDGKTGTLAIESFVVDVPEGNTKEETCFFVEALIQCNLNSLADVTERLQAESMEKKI

T9: PYL13-nLUC (Arabidopsis thaliana, UniProt Q9SN51 1-164)
T9 construct: LUC complementation assay in protoplasts; also called PYL13 fused to the N-terminal domain of LUC; not shown: N-terminal domain of firefly luciferase
T9 sequence: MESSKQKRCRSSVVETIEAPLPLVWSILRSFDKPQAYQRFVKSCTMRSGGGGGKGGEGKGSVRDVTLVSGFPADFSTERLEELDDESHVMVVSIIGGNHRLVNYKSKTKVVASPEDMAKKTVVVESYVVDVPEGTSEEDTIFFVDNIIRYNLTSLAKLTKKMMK

T10: HAI2 fused to the GAL4-activating domain (AD) (Arabidopsis, UniProt Q9LNW3 1-442)
T10 construct: Yeast two-hybrid construct
T10 sequence (looked up): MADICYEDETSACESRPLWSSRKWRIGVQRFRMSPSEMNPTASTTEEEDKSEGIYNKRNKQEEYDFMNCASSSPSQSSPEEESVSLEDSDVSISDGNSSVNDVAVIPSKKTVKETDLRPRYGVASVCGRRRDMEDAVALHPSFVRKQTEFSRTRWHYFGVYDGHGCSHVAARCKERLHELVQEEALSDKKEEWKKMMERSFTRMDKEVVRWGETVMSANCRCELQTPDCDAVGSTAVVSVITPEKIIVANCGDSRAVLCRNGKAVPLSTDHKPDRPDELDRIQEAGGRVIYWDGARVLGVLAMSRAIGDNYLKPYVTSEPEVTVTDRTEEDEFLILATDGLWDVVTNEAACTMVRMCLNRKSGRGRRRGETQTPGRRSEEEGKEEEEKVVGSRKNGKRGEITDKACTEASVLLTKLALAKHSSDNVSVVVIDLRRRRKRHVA


Legend:
PYL6-nLUC = target: T1, PYL6-nLUC; test: firefly luciferase complementation in protoplasts (weaker group)
Description: (§1) To further characterize the interactions between PYL13 and PYLs in vivo, their interactions in protoplasts were examined by the firefly luciferase (LUC) complementation assay. PYL13 was fused to the C-terminal domain of LUC (PYL13-cLUC), and PYLs were fused to the N-terminal domain of LUC (PYLs-nLUC), and co-expressed in protoplasts. After transfection, protoplasts were incubated overnight under light at room temperature, and the LUC activities in living protoplasts were measured. Error bars indicate s.e.m. (n=6). […] PYL13 binds more strongly to PYR1, PYL1-5, PYL7, and PYL10-11 than to PYL6, PYL8-9, or PYL13 (FIG. 5B).

PYL8-nLUC = target: T2, PYL8-nLUC; test: as above
Description: as §1

PYR1-nLUC = target: T3, PYR1-nLUC; test: firefly luciferase complementation in protoplasts (stronger group)
Description: as §1

PYL3-nLUC = target: T4, PYL3-nLUC; test: as above
Description: as §1

PYL4-nLUC = target: T5, PYL4-nLUC; test: as above
Description: as §1

PYL5-nLUC = target: T6, PYL5-nLUC; test: as above
Description: as §1

PYL7-nLUC = target: T7, PYL7-nLUC; test: as above
Description: as §1

PYL10-nLUC = target: T8, PYL10-nLUC; test: as above
Description: as §1

PYL13-nLUC = target: T9, PYL13-nLUC; test: firefly luciferase complementation in protoplasts (weaker group; PYL13 with itself)
Description: as §1

[1] = target: T10, HAI2 fused to the GAL4-activating …; test: yeast two-hybrid, growth on media lacking His and His/Ade, with and without ABA (ABA-independent)
Description: To investigate how PYL13 may function in plants, the interaction between PYL13 and clade A PP2Cs in yeast two-hybrid assays was examined, as shown in FIG. 3. […] PYL13 binds strongly with ABI1, ABI2, PP2CA, and HAI2 but weakly with HAB1 and HAI1 (FIG. 3A). […] PYL13 fused to the GAL4-DNA-binding domain (BD) was used as […]. Interaction was determined by growth assay on media lacking His and His/Ade in the presence and absence of ABA. Dilutions (10⁻¹, 10⁻², and 10⁻³) of saturated cultures were spotted onto the plates, which were photographed after 5 days.

| binding result (PYL6-nLUC) | binding result (PYL8-nLUC) | binding result (PYR1-nLUC) | binding result (PYL3-nLUC) | binding result (PYL4-nLUC) | binding result (PYL5-nLUC) | binding result (PYL7-nLUC) | binding result (PYL10-nLUC) | binding result (PYL13-nLUC) | binding result [1] | Binder |
| --- | --- | --- | --- | --- | --- | --- | --- | --- | --- | --- |
| binds | binds | binds | binds | binds | binds | binds | binds | binds |  | PYL13-cLUC (other, LUC complementation assay in protoplasts; also called PYL13 fused to the C-terminal domain of LUC; not shown: C-terminal domain of firefly luciferase) MESSKQKRCRSSVVETIEAPLPLVWSILRSFDKPQAYQRFVKSCTMRSGGGGGKGGEGKGSVRDVTLVSGFPADFSTERLEELDDESHVMVVSIIGGNHRLVNYKSKTKVVASPEDMAKKTVVVESYVVDVPEGTSEEDTIFFVDNIIRYNLTSLAKLTKKMMK |
|  |  |  |  |  |  |  |  |  | binds | PYL13 fused to the GAL4-DNA-binding domain (BD) (other, not shown: small tags and cut ends, also called BD-PYL13) MESSKQKRCRSSVVETIEAPLPLVWSILRSFDKPQAYQRFVKSCTMRSGGGGGKGGEGKGSVRDVTLVSGFPADFSTERLEELDDESHVMVVSIIGGNHRLVNYKSKTKVVASPEDMAKKTVVVESYVVDVPEGTSEEDTIFFVDNIIRYNLTSLAKLTKKMMK |
